# US20070022497A1, “Trans-2-enoyl-coa reductase gene of euglena gracilis” (BASF Plant Science GmbH, priority 2004, published 2007)
# T1: trans-2-enoyl-CoA reductase (TER) (Euglena gracilis, UniProt Q5EU90)
# T1 construct: One kilogram of Euglena gracilis strain Z cells grown under aerobic conditions for one week was used as starting material; endogenous in cells; host or cells: Euglena gracilis strain Z, aerobically grown; enzyme purified by chromatography (crude extract to Superdex 200)
# T1 sequence (Q5EU90 137-539 limits assumed): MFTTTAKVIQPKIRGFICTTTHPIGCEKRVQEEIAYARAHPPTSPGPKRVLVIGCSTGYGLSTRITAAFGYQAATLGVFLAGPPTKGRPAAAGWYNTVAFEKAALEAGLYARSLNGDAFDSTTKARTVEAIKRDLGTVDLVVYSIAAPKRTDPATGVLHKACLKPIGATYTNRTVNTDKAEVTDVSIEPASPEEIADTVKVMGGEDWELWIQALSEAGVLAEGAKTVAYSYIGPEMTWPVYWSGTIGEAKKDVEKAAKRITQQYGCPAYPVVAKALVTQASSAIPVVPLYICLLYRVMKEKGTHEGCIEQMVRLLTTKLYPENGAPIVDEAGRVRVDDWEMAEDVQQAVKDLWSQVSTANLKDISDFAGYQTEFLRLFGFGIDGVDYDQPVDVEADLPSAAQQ
# B1: SEQ ID NO: 4: shortened Ter gene ORF; protein SEQ ID NO: 5 with 28 amino acid N-terminal stretch predicted to give mitochondrial targeting (nucleic acid, listed as Euglena gracilis)
# DNA: ATGGGCCGCCGCGGGGCCGCAGTGGGCGGCGCCGCTCGTGGCCGCGGCCTCCTCCGCACTGGCGCTGTGGTGGTGAACATCGCCACCGCGGTCACCCACCTGGCCCCCCCGATGGCGATGTTCACCACCACAGCGAAGGTCATCCAGCCCAAGATTCGTGGCTTCATCTGCACGACCACCCACCCGATCGGCTGTGAGAAGCGGGTCCAGGAGGAGATCGCGTACGCCCGTGCCCACCCGCCCACCAGCCCTGGCCCGAAGAGGGTGCTGGTCATCGGCTGCAGTACCGGCTACGGGCTCTCCACCCGCATCACCGCTGCCTTCGGCTACCAGGCCGCCACGCTGGGCGTGTTCCTGGCGGGCCCCCCGACGAAGGGCCGCCCCGCCGCGGCGGGCTGGTACAACACCGTGGCGTTCGAGAAGGCCGCCCTGGAGGCCGGGCTGTACGCCCGGAGCCTTAATGGCGACGCCTTCGACTCCACAACGAAGGCGCGGACGGTCGAGGCGATCAAGCGGGACCTCGGCACGGTGGACCTCGTGGTGTACAGCATCGCCGCCCCGAAGCGGACGGACCCTGCCACCGGCGTCCTCCACAAGGCCTGCCTGAAGCCCATCGGCGCCACGTACACCAACCGCACTGTGAACACCGACAAGGCGGAGGTGACCGACGTCAGCATTGAGCCGGCCTCCCCCGAAGAGATCGCGGACACGGTGAAGGTGATGGGCGGGGAGGACTGGGAGCTCTGGATCCAGGCGCTGTCGGAGGCCGGCGTGCTGGCGGAGGGGGCCAAGACGGTGGCGTACTCCTACATCGGCCCCGAGATGACGTGGCCTGTCTACTGGTCCGGCACCATCGGGGAGGCCAAGAAGGACGTGGAGAAGGCTGCCAAGCGCATCACGCAGCAGTACGGCTGCCCGGCGTACCCGGTGGTGGCCAAGGCCTTGGTCACCCAGGCCAGCTCCGCCATCCCGGTGGTGCCGCTCTACATCTGCCTGCTGTACCGCGTTATGAAGGAGAAGGGCACCCACGAGGGCTGCATCGAGCAGATGGTGCGGCTGCTCACCACGAAGCTGTACCCCGAGAACGGGGCCCCCATCGTCGATGAGGCCGGACGTGTGCGGGTGGATGACTGGGAGATGGCGGAGGATGTGCAGCAGGCTGTTAAGGACCTCTGGAGCCAGGTGAGCACTGCCAACCTCAAGGACATCTCCGACTTCGCTGGGTATCAAACTGAGTTCCTGCGGCTGTTCGGGTTCGGCATTGACGGCGTGGACTACGACCAGCCCGTGGACGTGGAGGCGGACCTCCCCAGTGCTGCCCAGCAGTAG
# modifications: CDS (1)..(1329)
# B2: ter2-protein: His-tagged truncated TER protein (from aa 136, 45 kDa) expressed in E. coli (protein, listed as Euglena gracilis)
# chain: T1 sequence (Q5EU90 137-539 limits assumed)
# modifications: His tag
# notes: His-tagged truncated TER protein (from aa 136, 45 kDa) expressed in E. coli
# Assays:
# Arabidopsis thaliana = experiment: Total seed lipid content of transgenic Arabidopsis plants over-expressing the TER gene (gas chromatography of fatty acids); assay type: in vivo; settings: for Total seed lipids, % fatty acids: mean of two extractions, empty vector controls 28.3 ± 0.4
# Description: Using floral dip essentially as described by Clough and Bent, 1998, plants are transformed with Agrobacterium tumefaciens C58C1 harboring the plasmid pSUN300-USP-TER-OCS respectively. Entire plants (inflorescence and rosette) are submerged for 20-30 sec in the infiltration media consisting of 5% sucrose, 0.02% Silwet L-77 (Osi Specialties, Danbury, Conn.) and re-suspended transformed A. tumefasciens cells. Plants are then transferred to a growth chamber with a photoperiod of 16 h of light at 21° C. and 8 h of dark at 18° C. (70% humidity) or a similarly air-conditioned greenhouse. The T1 seeds are collected from mature plants. Subsequently transformed plants were identified on selection media by growing T1 seeds on MS-agar plates supplemented with kanamycin (50 μg/ml).
# Plant lipids were extracted from plant material as described by Cahoon et al. (1999, Proc. Natl. Acad. Sci. USA 96, 22:12935-12940) and Browse et al. (1986, Anal, Bio-chemistry 442:141-145). Qualitative and quantitative lipid or fatty acid analysis is described in Christie, William W., Advances in Lipid Methodology. Ayr/Scotland :Oily Press.—(Oily Press Lipid Library; Christie, William W., Gas Chromatography and Lipids. A Practical Guide—Ayr, Scotland :Oily Press, 1989 Repr. 1992.—IX,307).
# The total lipid content of dry T2 generation seeds from Arabidopsis thaliana plants over-expressing SEQ ID NO: 1, SEQ ID NO: 4 or SEQ ID NO: 6 will be increased compared to the empty vector Arabidopsis thaliana control plants not expressing SEQ ID NO: 1, SEQ ID NO: 4 or SEQ ID NO: 6. As an example the T2 seed lipid content determined by conventional gas chromatography as mg fatty acids per mg dry seeds of the plants overexpressing SEQ ID NO: 4 is given in table 4. Each value is the mean of two separate extractions of the seed of the given line. The control value is the mean of the seeds of 4 empty vector control plants grown simultaneously, each extracted and measured also in duplicate.
# [1] = target: T1, trans-2-enoyl-CoA reductase (TER); experiment: trans-2-enoyl-CoA reductase enzyme activity assay (decrease of absorbance at 340 nm with Crotonyl-CoA and NADH); assay type: biochemical; settings: His-Tag protein from ter2-pET28 in E. coli BL21 (DE3), purified via Ni-NTA agarose
# Description: Enzyme activity was measured as described by Inui, H. et al. (1984) Eur. J. Biochem. 142: 121-126 with the following modifications. The assay mixture contained 100 mM potassiumphosphate buffer pH 6,2; 0,75 mM Crotonyl-CoA (Sigma); 0,4 mM NADH and 2 μM FAD and enzyme. The assay mixture without substrate was preincubated for 10 min at 30° C. The reaction was also performed at 30° C. and started with the addition of substrate. The activity was determined by the decrease of absorbance at 340 nm. The final assay volume was 1 ml (Ultrospec 2000 Spectrophotometer, Amersham Biosciences) or 200 μl (GENios microplate reader, Tecan Instruments, Maennedorf, Switzerland).
Molecule,"increase in seed storage lipids compared to the controls (Arabidopsis thaliana; independent T2 lines, seed specific promoter, relative to empty pSun300-USP vector controls (FIG. 9))","Total seed lipids, % fatty acids (Arabidopsis thaliana; transgenic line 7, dry T2 seeds) [%]","Total seed lipids, % fatty acids (Arabidopsis thaliana; transgenic line 10, dry T2 seeds) [%]","Total seed lipids, % fatty acids (Arabidopsis thaliana; transgenic line 22, dry T2 seeds) [%]",Specific activity of purified ter2-protein [1] [nmol/mg/min]
B1,at least 10%,35.5 ± 3.2,32.4 ± 1.1,31.4 ± 0.9,
B2,,,,,1510
